# Reference: patent publication US6566489 (GENERAL HOSPITAL, dated 2003)
# B1: pMal/syndecan-4 fusion protein, full length syndecan-4 core protein (S-4) (other, avian, UniProt P49416 20-197, looked up, not shown: large carriers)
# chain: ESVRETETMDARWLDNVGSGDLPDDEDIGEFTPHLTSDEFDIDDTSGSGDYSDYDDAIYLTTVDTPAISDNYIPGDTERKMEGEKKNTMLDNEIIPDKASPVEANLSNKISMASTANSSIFERTEVLTALIAGGAVGLLFAVFLILLLVYRMKKKDEGSYDLGKKPIYKKAPTNEFYA
# notes: Bacterially expressed, soluble, purified on a maltose column
# Target: T1, GST alone (UniProt P08515 1-218 = GST)
# T1 construct: Negative control
# T1 sequence (P08515 whole entry): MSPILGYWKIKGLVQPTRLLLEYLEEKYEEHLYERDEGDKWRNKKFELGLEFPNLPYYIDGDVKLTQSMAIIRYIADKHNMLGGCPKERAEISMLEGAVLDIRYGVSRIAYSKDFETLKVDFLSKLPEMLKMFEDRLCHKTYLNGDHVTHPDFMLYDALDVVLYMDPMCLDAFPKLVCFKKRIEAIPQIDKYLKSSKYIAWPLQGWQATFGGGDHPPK
# Test: pull-down on GST beads, western blot with CS4E
# Description: Fifteen µl of a 50% slurry of GST-S4BP bound to GST beads were incubated with 10 µg of soluble pMal-syndecan in 0.5 ml of lysis buffer that contained 1% BSA. After incubation for 30 minutes at room temperature with constant mixing, the reaction mixtures were placed on ice and washed 3× with lysis buffer followed by, 3 washes with lysis buffer containing 1 M NaCl. Protein bound to GST-S4BP beads was solubilized in SDS-PAGE buffer, electrophoresed, transferred to an Immobilon-P membrane and analyzed for bound syndecan-4 core protein using the avian specific syndecan-4 polyclonal antibody CS4E (Baciu et al. (1994) *J. Biol. Chem.* 269:696–703).
binder,measurement,value
B1,binding result,no binding (tested: 10 µg of soluble pMal-syndecan in 0.5 ml)
